Reference: the Human Domainome abundance scans (Beltran et al. 2025)

B1: DNA topoisomerase 3-alpha, residues 812 to 851; numbered along this chain, Q13472 (parent)
chain: TCNCGQEAVLLTVRKEGPNRGRQFFKCNGGSCNFFLWADS
B2: Spectrin alpha chain, erythrocytic 1, residues 979 to 1036; numbered along this chain, P02549 (parent)
chain: EQRVMALYDFQARSPREVTMKKGDVLTLLSSINKDWWKVEAADHQGIVPAVYVRRLAH

Variants of: B1
Assay: abundance fitness (aPCA) (normalised: wild type 0, dead -1); higher = more abundant; growth selection in yeast, the domain comes from the species named
Settings: Homo sapiens

Abundance fitness, by site and new letter:
W37: T -0.483; V -0.19; L -0.52; G -0.48; P -0.239; K -0.29; R -0.51
D39: G -0.227; E -0.105; P -0.171; R -0.838; M -1.03; L -0.93; C -0.205; Q -0.63
A38: V -0.295; D -0.371; P -0.659

Variants of: B2
Assay: as above
Settings: Homo sapiens

Abundance fitness, by site and new letter:
R3: W -0.209; L -0.14; T -0.778; C -0.645; H -0.408; M -0.448; Y 0.294; E -0.582; F 0.074; K 0.226; A -0.574; V -0.828; P -0.94; S -0.737; Q -0.272
Y8: A 0.346; F 0.772
D9: W -1.02; G -0.652; R -0.943; T -0.862; N -0.651; M -0.855; E -1.01; S -0.754; A -0.166; L -0.566; V -0.934
F10: L -0.658; G -0.996; R -0.472; C -1.09; A -0.778; S -0.707; Q -0.607; D -0.834; P -0.712; W 0.365; V -0.992; Y 0.625; I -0.341
S14: A -0.743; P -0.802; G -0.358; L -0.866; H -0.292; D 0.134; N 0.014; C -0.571; I -0.276
V4: L -0.537; G -1.05; A -0.945; Q -0.145; P -0.927; C -0.52; T -1.04; K -0.739; M -0.716; R -0.877
Q2: H -0.061; P -0.874; G -0.187; E 0.108; V -0.384; S -0.822; A -0.002; L -0.573; T -0.614; F 0.195; D 0.855; R -0.401
M5: E 0.081; I 0.162; W -0.85; N -0.512; G -0.813; K -0.201; A -0.587; S -0.344; T -0.242; Q -0.383; C -0.516; V 0.422
A6: M -0.915; S -0.496; N -0.44; V -0.861; T -0.685; P -0.882; G -0.76; C -0.048; L -0.886; E -0.47; K -0.73; Y -0.794; Q -0.975; R -0.767; W -0.754
L7: D -0.135; R -0.686; K -0.176; A -0.609; M -0.049; G -0.559; P -0.76; V -0.199; S -0.85; W -0.716; H -1.18
R13: A -0.26; Q -0.305; V -0.867; S -0.221; G -0.527; L -0.742; W -0.738; C -0.316; K -0.414; M -0.751; F -0.585
Q11: V 0.097; K 0.303; Y -0.185; D -0.582; G -0.774; W -1.23; T 0.028; E -0.328; A -0.37; H -0.421; S -0.372; I -0.419; M -0.314; P -0.91; C -0.348
E1: D 0.242; G -0.425; R -0.215
A12: K -0.71; G -0.779; V -0.848; F -0.627; P -0.971; M -0.891; R -0.389; W -0.804; S -0.802; L -0.964
